Target: the molecule itself
Assay: non-reducing SDS-PAGE

Protein | stoichiometry N
VapC toxin from Leptospira interrogans serovar Copenhageni (LIC12660), 6xHis-tagged, refolded by hig (enzyme, also called pressurized VapC) MYLLDTNICIFLIKKKNATLLENLKKKLNKDLFVSSLTVAELEFGIQKSEFKEKNKVALIEFLTIFNILSFSDKDAESYGIIRADLERKGNVIGSIDMLLAAQAIANNYIFVTNNTKEFKRIKALKIENWTQ | 2
VapC toxin from Leptospira interrogans serovar Copenhageni (LIC12660), non-tagged, co-expressed with VapB (enzyme, Translated from the bicistronic mRNA under a single promoter; also called non-tagged VapC) MYLLDTNICIFLIKKKNATLLENLKKKLNKDLFVSSLTVAELEFGIQKSEFKEKNKVALIEFLTIFNILSFSDKDAESYGIIRADLERKGNVIGSIDMLLAAQAIANNYIFVTNNTKEFKRIKALKIENWTQ | 2
